B1: C32: E. coli EPSPS C-terminal fragment, residue 32 to C-terminus (protein, UniProt P0A6D3 32-427, looked up, fragment)
chain: AALAHGKTVLTNLLDSDDVRHMLNALTALGVSYTLSADRTRCEIIGNGGPLHAEGALELFLGNAGTAMRPLAAALCLGSNDIVLTGEPRMKERPIGHLVDALRLGGAKITYLEQENYPPLRLQGGFTGGNVDVDGSVSSQFLTALLMTAPLAPEDTVIRIKGDLVSKPYIDITLNLMKTFGVEIENQHYQQFVVKGGQSYQSPGTYLVEGDASSASYFLAAAAIKGGTVKVTGIGRNSMQGDIRFADVLEKMGATICWGDDYISCTRGELNAIDMDMNHIPDAAMTIATAALFAKGTTTLRNIYNWRVKETDRLFAMATELRKVGAEVEEGHDYIRITPPEKLNFAEIATYNDHRMAMCFSLVALSDTPVTILDPKCTAKTFPDYFEQLARISQAA
B2: C299: E. coli EPSPS C-terminal fragment, residue 299 to C-terminus (protein, UniProt P0A6D3 299-427, looked up, fragment)
chain: GELNAIDMDMNHIPDAAMTIATAALFAKGTTTLRNIYNWRVKETDRLFAMATELRKVGAEVEEGHDYIRITPPEKLNFAEIATYNDHRMAMCFSLVALSDTPVTILDPKCTAKTFPDYFEQLARISQAA
B3: C260: E. coli EPSPS C-terminal fragment, residue 260 to C-terminus (protein, UniProt P0A6D3 260-427, looked up, fragment)
chain: VKVTGIGRNSMQGDIRFADVLEKMGATICWGDDYISCTRGELNAIDMDMNHIPDAAMTIATAALFAKGTTTLRNIYNWRVKETDRLFAMATELRKVGAEVEEGHDYIRITPPEKLNFAEIATYNDHRMAMCFSLVALSDTPVTILDPKCTAKTFPDYFEQLARISQAA
B4: C74: E. coli EPSPS C-terminal fragment, residue 74 to C-terminus (protein, UniProt P0A6D3 74-427, looked up, fragment)
chain: EIIGNGGPLHAEGALELFLGNAGTAMRPLAAALCLGSNDIVLTGEPRMKERPIGHLVDALRLGGAKITYLEQENYPPLRLQGGFTGGNVDVDGSVSSQFLTALLMTAPLAPEDTVIRIKGDLVSKPYIDITLNLMKTFGVEIENQHYQQFVVKGGQSYQSPGTYLVEGDASSASYFLAAAAIKGGTVKVTGIGRNSMQGDIRFADVLEKMGATICWGDDYISCTRGELNAIDMDMNHIPDAAMTIATAALFAKGTTTLRNIYNWRVKETDRLFAMATELRKVGAEVEEGHDYIRITPPEKLNFAEIATYNDHRMAMCFSLVALSDTPVTILDPKCTAKTFPDYFEQLARISQAA
B5: C68: E. coli EPSPS C-terminal fragment, residue 68 to C-terminus (protein, UniProt P0A6D3 68-427, looked up, fragment)
chain: ADRTRCEIIGNGGPLHAEGALELFLGNAGTAMRPLAAALCLGSNDIVLTGEPRMKERPIGHLVDALRLGGAKITYLEQENYPPLRLQGGFTGGNVDVDGSVSSQFLTALLMTAPLAPEDTVIRIKGDLVSKPYIDITLNLMKTFGVEIENQHYQQFVVKGGQSYQSPGTYLVEGDASSASYFLAAAAIKGGTVKVTGIGRNSMQGDIRFADVLEKMGATICWGDDYISCTRGELNAIDMDMNHIPDAAMTIATAALFAKGTTTLRNIYNWRVKETDRLFAMATELRKVGAEVEEGHDYIRITPPEKLNFAEIATYNDHRMAMCFSLVALSDTPVTILDPKCTAKTFPDYFEQLARISQAA
B6: N376: E. coli EPSPS N-terminal fragment, N-terminus to residue 376 (protein, UniProt P0A6D3 1-376, looked up, fragment)
chain: MESLTLQPIARVDGTINLPGSKSVSNRALLLAALAHGKTVLTNLLDSDDVRHMLNALTALGVSYTLSADRTRCEIIGNGGPLHAEGALELFLGNAGTAMRPLAAALCLGSNDIVLTGEPRMKERPIGHLVDALRLGGAKITYLEQENYPPLRLQGGFTGGNVDVDGSVSSQFLTALLMTAPLAPEDTVIRIKGDLVSKPYIDITLNLMKTFGVEIENQHYQQFVVKGGQSYQSPGTYLVEGDASSASYFLAAAAIKGGTVKVTGIGRNSMQGDIRFADVLEKMGATICWGDDYISCTRGELNAIDMDMNHIPDAAMTIATAALFAKGTTTLRNIYNWRVKETDRLFAMATELRKVGAEVEEGHDYIRITPPEKLNF
B7: N371: E. coli EPSPS N-terminal fragment, N-terminus to residue 371 (protein, UniProt P0A6D3 1-371, looked up, fragment)
chain: MESLTLQPIARVDGTINLPGSKSVSNRALLLAALAHGKTVLTNLLDSDDVRHMLNALTALGVSYTLSADRTRCEIIGNGGPLHAEGALELFLGNAGTAMRPLAAALCLGSNDIVLTGEPRMKERPIGHLVDALRLGGAKITYLEQENYPPLRLQGGFTGGNVDVDGSVSSQFLTALLMTAPLAPEDTVIRIKGDLVSKPYIDITLNLMKTFGVEIENQHYQQFVVKGGQSYQSPGTYLVEGDASSASYFLAAAAIKGGTVKVTGIGRNSMQGDIRFADVLEKMGATICWGDDYISCTRGELNAIDMDMNHIPDAAMTIATAALFAKGTTTLRNIYNWRVKETDRLFAMATELRKVGAEVEEGHDYIRITPP
B8: N298: E. coli EPSPS N-terminal fragment, N-terminus to residue 298 (protein, UniProt P0A6D3 1-298, looked up, fragment)
chain: MESLTLQPIARVDGTINLPGSKSVSNRALLLAALAHGKTVLTNLLDSDDVRHMLNALTALGVSYTLSADRTRCEIIGNGGPLHAEGALELFLGNAGTAMRPLAAALCLGSNDIVLTGEPRMKERPIGHLVDALRLGGAKITYLEQENYPPLRLQGGFTGGNVDVDGSVSSQFLTALLMTAPLAPEDTVIRIKGDLVSKPYIDITLNLMKTFGVEIENQHYQQFVVKGGQSYQSPGTYLVEGDASSASYFLAAAAIKGGTVKVTGIGRNSMQGDIRFADVLEKMGATICWGDDYISCTR
B9: N383: E. coli EPSPS N-terminal fragment, N-terminus to residue 383 (protein, UniProt P0A6D3 1-383, looked up, fragment)
chain: MESLTLQPIARVDGTINLPGSKSVSNRALLLAALAHGKTVLTNLLDSDDVRHMLNALTALGVSYTLSADRTRCEIIGNGGPLHAEGALELFLGNAGTAMRPLAAALCLGSNDIVLTGEPRMKERPIGHLVDALRLGGAKITYLEQENYPPLRLQGGFTGGNVDVDGSVSSQFLTALLMTAPLAPEDTVIRIKGDLVSKPYIDITLNLMKTFGVEIENQHYQQFVVKGGQSYQSPGTYLVEGDASSASYFLAAAAIKGGTVKVTGIGRNSMQGDIRFADVLEKMGATICWGDDYISCTRGELNAIDMDMNHIPDAAMTIATAALFAKGTTTLRNIYNWRVKETDRLFAMATELRKVGAEVEEGHDYIRITPPEKLNFAEIATYN
B10: N73: E. coli EPSPS N-terminal fragment, N-terminus to residue 73 (protein, UniProt P0A6D3 1-73, looked up, fragment)
chain: MESLTLQPIARVDGTINLPGSKSVSNRALLLAALAHGKTVLTNLLDSDDVRHMLNALTALGVSYTLSADRTRC
B11: N67: E. coli EPSPS N-terminal fragment, N-terminus to residue 67 (protein, UniProt P0A6D3 1-67, looked up, fragment)
chain: MESLTLQPIARVDGTINLPGSKSVSNRALLLAALAHGKTVLTNLLDSDDVRHMLNALTALGVSYTLS

Each molecule was assayed on aroA gene-mutant E. coli strain AB2829 (assay: In vivo complementation: growth on solid M63 restrictive medium). Details: C-terminal fragment alone.
Assay type: cell-based
Design: key: −: failed to grow; +: able to grow
From the text: The pKU2100 plasmid constructed as described above and corresponding pACYC1184 plasmid were introduced separately or together into the strain AB2829 deficient in E. coli aroA gene. Then, the strain was streaked on solid M63 restrictive medium and cultured overnight to determine the growth.
In order to test if EPSPS achieves fragment complementation after in vivo expression, genes encoding EPSPS N-terminal peptides were constructed into pACYC184, and genes encoding EPSPS C-terminal peptides were constructed into pBR322 (see the section Materials and Methods for the detailed construction method). Afterwards, these plasmids were introduced into aroA gene-mutant E. coli strain AB2829. EPSPS activity of the protein fragments encoded by these genes was determined by the growth of the strains on M63 restrictive medium.
The pACYC184 and pBR322 plasmids are able to be expressed in the same bacterial cell since they have replicons p15A and ColE1 respectively. In this regard, a pACYC184 plasmid was co-introduced into aroA gene-mutant E. coli strain AB2829 together with a corresponding pKU2100 plasmid, wherein the N-terminal peptide encoded by the pACYC184 plasmid and C-terminal peptide encoded by the pKU2100 plasmid are the two fragments divided at the same site from EPSPS. The resulting strains are streaked on M63 restrictive medium, and cultured at 37° C.
The pBR322 plasmids constructed in section 3.5 a and their relevant pACYC1184 plasmids constructed in section 3.5 b were introduced respectively or together into E. coli strain AB2829 deficient in aroA gene. Then the strains were streaked on solid M63 restrictive medium and cultured overnight to test the growth.
In the case of B1, the “complementation condition, C-terminal” value is reported as “−”. With B2 the “complementation condition, C-terminal” value was “−”. B3 was tested, and the “complementation condition, C-terminal” value was “−”. B4 was tested, and the “complementation condition, C-terminal” value was “−”. With B5 the “complementation condition, C-terminal” value was “−”.

Same assay, conditions: N-terminal fragment alone
B6 was tested, and the “complementation condition, N-terminal” value was “−”. In the case of B7, the “complementation condition, N-terminal” value is reported as “−”. B8 was tested, and the “complementation condition, N-terminal” value was “−”. B9 was tested, and the “complementation condition, N-terminal” value was “−”. B10 was tested, and the “complementation condition, N-terminal” value was “−”. In the case of B11, the “complementation condition, N-terminal” value is reported as “−”.

— patent US8936925B2, “Reconstitution of 5-enolpyruvylshikimate-3-phosphate synthase activity by fragment complementation” (priority 2004, dated 2015)
